Source: patent US5763209

Legend:
Test in all cases: cell_activity
[1] = tested on: GAL4(1-147)-Egr-1(240-330) (Saccharomyces cerevisiae / Mus musculus); details: GAL4-site-dependent
[2] = tested on: GAL4(1-147)-Egr-1(281-314) (Saccharomyces cerevisiae / Mus musculus); details: 1 µg effector plasmid
[3] = tested on: GAL4(1-147)-Egr-1(3-281) (Saccharomyces cerevisiae / Mus musculus); details: GAL4-site-dependent activation; text says amino acids 1-281
[4] = tested on: GAL4(1-147)-Egr-1(420-533) (Saccharomyces cerevisiae / Mus musculus); details: GAL4-site-dependent activation

Row | Substance | activity (fold repression) [1] | activity (fold repression) [2] | activity [3] | activity [4]
1 | GAL4 5 tkCAT reporter plasmid | 10 | > 5 |  | 
2 | GAL4 reporter, five GAL4 sites with E1b minimal promoter |  |  | 100 fold | 5 fold
